Enrichment data for 150 variants are collected here from publication PMC11969024 (2025).

B1: peptide HD2 (from tick evasin EVA4) / CXCL14 (biotinylated, synthetic) (parent complex)
chain 1: EEDDYTAYAPLTCYFT
chain 2: SKCKCSRKGPKIRYSDVKKLEMKPKYPHCEEKMVIITTKSVSRYRGQEHCLHPKLQSTKRFIKWYNAWNEKRRVYEE
B2: peptide HD2 (from tick evasin EVA4) / CCL1 (biotinylated, synthetic) (parent complex)
chain 1: EEDDYTAYAPLTCYFT
chain 2: KSMQVPFSRCCFSFAEQEIPLRAILCYRNTSSICSNEGLIFKLKRGKEACALDTVGWVQRHRKMLRHCPSKRK

Variants of B1 are the subject of the first assay.
For the variant chain 1 E1F, the enrichment is 0.23 log2 (difference from the parental peptide).
Regarding chain 1 E1W, the enrichment is -4.16 log2 (difference from the parental peptide).
As to chain 1 E1D, the enrichment is 2.43 log2 (difference from the parental peptide).
On the same count and under the same terms, the value for chain 1 E1I was 3.24 log2 (difference from the parental peptide).
In the case of chain 1 T12C, the enrichment was -5.89 log2 (difference from the parental peptide).
For chain 1 T12P, the enrichment is -5.93 log2 (difference from the parental peptide).
Still for that read-out and setting: the value for chain 1 T12Y was 2.9 log2 (difference from the parental peptide).
On to chain 1 T12Q, for which the enrichment is -4.89 log2 (difference from the parental peptide).
Consider chain 1 T12K, for which the enrichment was -5.85 log2 (difference from the parental peptide).
Take chain 1 E2L: the enrichment is -1.86 log2 (difference from the parental peptide).
Consider chain 1 A9Y, for which the enrichment was -5.34 log2 (difference from the parental peptide).
For the variant chain 1 A9L, the enrichment is 0.282 log2 (difference from the parental peptide).
chain 1 A9M: the enrichment was 0.996 log2 (difference from the parental peptide).
Regarding chain 1 A9I, the enrichment was 0.725 log2 (difference from the parental peptide).
As to chain 1 C13E, the enrichment is -8.19 log2 (difference from the parental peptide).
Turning to chain 1 C13V, the enrichment is 2.72 log2 (difference from the parental peptide).
For the variant chain 1 C13W, the enrichment was -7.91 log2 (difference from the parental peptide).
Consider chain 1 A7P, for which the enrichment was -3.32 log2 (difference from the parental peptide).
For chain 1 A7F, the enrichment was 2.13 log2 (difference from the parental peptide).
As to chain 1 A7V, the enrichment was -1.42 log2 (difference from the parental peptide).
chain 1 A7K: the enrichment was 3.78 log2 (difference from the parental peptide).
chain 1 A7L: the enrichment was 0.408 log2 (difference from the parental peptide).
Take chain 1 A7E: the enrichment is 2.45 log2 (difference from the parental peptide).
Consider chain 1 T6W, for which the enrichment was 5.58 log2 (difference from the parental peptide).
On to chain 1 T6C, for which the enrichment was -9.38 log2 (difference from the parental peptide).
Turning to chain 1 T6V, the enrichment is -0.538 log2 (difference from the parental peptide).
chain 1 T6L: the enrichment was 0.717 log2 (difference from the parental peptide).
Same read-out and setting: the result for chain 1 T6H reads -0.995 log2 (difference from the parental peptide); that for chain 1 T6A, 0.332 log2 (difference from the parental peptide); that for chain 1 Y5I, 0.188 log2 (difference from the parental peptide).
Turning to chain 1 Y5H, the enrichment was -3.59 log2 (difference from the parental peptide).
For the variant chain 1 Y5C, the enrichment was -4.43 log2 (difference from the parental peptide).
On to chain 1 P10G, for which the enrichment was -1.01 log2 (difference from the parental peptide).
Same read-out and setting: the result for chain 1 P10W reads 1.96 log2 (difference from the parental peptide).
The same measure, in the same setting: the result for chain 1 P10S reads -0.979 log2 (difference from the parental peptide).
In the case of chain 1 T16P, the enrichment was -4.73 log2 (difference from the parental peptide).
As for chain 1 T16E, the enrichment was -5.76 log2 (difference from the parental peptide).
As for chain 1 T16K, the enrichment was 0.732 log2 (difference from the parental peptide).
With chain 1 T16M, the enrichment was 1.39 log2 (difference from the parental peptide).
For chain 1 T16V, the enrichment is -2.39 log2 (difference from the parental peptide).
With chain 1 Y14L, the enrichment was -8.75 log2 (difference from the parental peptide).
As to chain 1 Y14Q, the enrichment is -6.31 log2 (difference from the parental peptide).
Still for that read-out and setting: the result for chain 1 F15I reads -3.52 log2 (difference from the parental peptide).
On to chain 1 L11T, for which the enrichment was -4.92 log2 (difference from the parental peptide).
Consider chain 1 L11W, for which the enrichment is 0.85 log2 (difference from the parental peptide).
Take chain 1 L11M: the enrichment was 2.64 log2 (difference from the parental peptide).
As to chain 1 L11S, the enrichment was -6.87 log2 (difference from the parental peptide).
As for chain 1 Y8F, the enrichment is -1.72 log2 (difference from the parental peptide).
Consider chain 1 Y8D, for which the enrichment was 2.61 log2 (difference from the parental peptide).
For chain 1 D4Y, the enrichment was -1.42 log2 (difference from the parental peptide).
For the variant chain 1 D4S, the enrichment is -1.33 log2 (difference from the parental peptide).

Another assay covers variants of B2.
chain 1 E2H: the enrichment is -3.7 log2 (difference from the parental peptide).
With chain 1 E2A, the enrichment was -1.98 log2 (difference from the parental peptide).
Still for that read-out and setting: the value for chain 1 T12S was -1.12 log2 (difference from the parental peptide); that for chain 1 T12R was -1.56 log2 (difference from the parental peptide); that for chain 1 T12P was 0.359 log2 (difference from the parental peptide).
On the same count and under the same terms, the value for chain 1 T12G was -9.53 log2 (difference from the parental peptide).
Same read-out and setting: the value for chain 1 T12W was 0.647 log2 (difference from the parental peptide).
For chain 1 T12V, the enrichment was -1.56 log2 (difference from the parental peptide).
In the case of chain 1 T12Y, the enrichment is 1.88 log2 (difference from the parental peptide).
On the same count and under the same terms, the result for chain 1 T12C reads -5.86 log2 (difference from the parental peptide); that for chain 1 Y14I, -4.18 log2 (difference from the parental peptide); that for chain 1 Y14T, -6.17 log2 (difference from the parental peptide).
As for chain 1 Y14R, the enrichment was -7.32 log2 (difference from the parental peptide).
On the same count and under the same terms, the value for chain 1 Y14Q was -5.69 log2 (difference from the parental peptide); that for chain 1 Y14F was 0.0997 log2 (difference from the parental peptide).
Take chain 1 Y5I: the enrichment was -7.45 log2 (difference from the parental peptide).
Turning to chain 1 Y5L, the enrichment was -5.06 log2 (difference from the parental peptide).
Same read-out and setting: the result for chain 1 Y5F reads -4.11 log2 (difference from the parental peptide); that for chain 1 Y8M, -7.72 log2 (difference from the parental peptide).
For the variant chain 1 Y8L, the enrichment was -7.27 log2 (difference from the parental peptide).
Turning to chain 1 Y8V, the enrichment is -4.63 log2 (difference from the parental peptide).
Regarding chain 1 Y8F, the enrichment was -0.41 log2 (difference from the parental peptide).
As to chain 1 L11S, the enrichment is -4.97 log2 (difference from the parental peptide).
Still for that read-out and setting: the result for chain 1 L11Q reads 1.31 log2 (difference from the parental peptide).
With chain 1 L11G, the enrichment is -8.48 log2 (difference from the parental peptide).
Consider chain 1 L11V, for which the enrichment was 3.09 log2 (difference from the parental peptide).
Take chain 1 L11R: the enrichment is 0.643 log2 (difference from the parental peptide).
Regarding chain 1 L11W, the enrichment was -0.114 log2 (difference from the parental peptide).
For chain 1 L11T, the enrichment was -0.173 log2 (difference from the parental peptide).
Regarding chain 1 L11A, the enrichment was -2.67 log2 (difference from the parental peptide).
Same read-out and setting: the result for chain 1 L11D reads -8.31 log2 (difference from the parental peptide); that for chain 1 L11Y, 0.82 log2 (difference from the parental peptide).
With chain 1 D4P, the enrichment is -4.71 log2 (difference from the parental peptide).
Consider chain 1 D4L, for which the enrichment was -6.1 log2 (difference from the parental peptide).
Consider chain 1 D4H, for which the enrichment is -7 log2 (difference from the parental peptide).
As for chain 1 D4F, the enrichment was -6.41 log2 (difference from the parental peptide).
For the variant chain 1 D4I, the enrichment is -6.7 log2 (difference from the parental peptide).
As for chain 1 D4Y, the enrichment was -4.35 log2 (difference from the parental peptide).
The same measure, in the same setting: the result for chain 1 D3S reads -3.39 log2 (difference from the parental peptide); that for chain 1 D3E, 1.49 log2 (difference from the parental peptide); that for chain 1 D3T, -2.84 log2 (difference from the parental peptide).
As for chain 1 A7N, the enrichment is -1.23 log2 (difference from the parental peptide).
Regarding chain 1 A7H, the enrichment is -2.76 log2 (difference from the parental peptide).
Turning to chain 1 A7I, the enrichment was -3.58 log2 (difference from the parental peptide).
For chain 1 A7F, the enrichment is -3.93 log2 (difference from the parental peptide).
Consider chain 1 A7L, for which the enrichment was -2.16 log2 (difference from the parental peptide).
Consider chain 1 A7M, for which the enrichment was 1.33 log2 (difference from the parental peptide).
Same read-out and setting: the value for chain 1 A7E was 0.457 log2 (difference from the parental peptide); that for chain 1 C13V was -4.73 log2 (difference from the parental peptide).
chain 1 C13P: the enrichment was -6.51 log2 (difference from the parental peptide).
For chain 1 C13G, the enrichment was -9.66 log2 (difference from the parental peptide).
Consider chain 1 C13S, for which the enrichment is -4.71 log2 (difference from the parental peptide).
As for chain 1 C13N, the enrichment is -5.11 log2 (difference from the parental peptide).
Turning to chain 1 C13D, the enrichment is -7.39 log2 (difference from the parental peptide).
Regarding chain 1 E1I, the enrichment was -1.54 log2 (difference from the parental peptide).
Take chain 1 E1D: the enrichment was 2.01 log2 (difference from the parental peptide).
Take chain 1 E1L: the enrichment is -1.81 log2 (difference from the parental peptide).
Regarding chain 1 E1P, the enrichment was -3.07 log2 (difference from the parental peptide).
Still for that read-out and setting: the value for chain 1 E1G was -1.01 log2 (difference from the parental peptide).
As for chain 1 E1Y, the enrichment is -0.577 log2 (difference from the parental peptide).
Consider chain 1 E1R, for which the enrichment was -4.21 log2 (difference from the parental peptide).
chain 1 E1T: the enrichment is -1.42 log2 (difference from the parental peptide).
As to chain 1 A9E, the enrichment is 2.72 log2 (difference from the parental peptide).
As for chain 1 A9Y, the enrichment was -5.89 log2 (difference from the parental peptide).
The same measure, in the same setting: the value for chain 1 A9F was -5.95 log2 (difference from the parental peptide); that for chain 1 T16S was 0.836 log2 (difference from the parental peptide).
Still for that read-out and setting: the value for chain 1 T16V was -0.26 log2 (difference from the parental peptide).
As to chain 1 T16Q, the enrichment was 0.281 log2 (difference from the parental peptide).
On the same count and under the same terms, the value for chain 1 T16F was -0.729 log2 (difference from the parental peptide); that for chain 1 T16E was 1.93 log2 (difference from the parental peptide); that for chain 1 T16N was -0.351 log2 (difference from the parental peptide).
For chain 1 T16A, the enrichment is 1.5 log2 (difference from the parental peptide).
On to chain 1 T16H, for which the enrichment was -0.232 log2 (difference from the parental peptide).
Consider chain 1 T16L, for which the enrichment is -0.0976 log2 (difference from the parental peptide).
As for chain 1 T16C, the enrichment was 0.749 log2 (difference from the parental peptide).
On the same count and under the same terms, the value for chain 1 T16G was 1.22 log2 (difference from the parental peptide); that for chain 1 P10M was -6.14 log2 (difference from the parental peptide).
Same read-out and setting: the result for chain 1 P10A reads -5.62 log2 (difference from the parental peptide).
With chain 1 F15E, the enrichment was -0.986 log2 (difference from the parental peptide).
For the variant chain 1 F15S, the enrichment is -0.0654 log2 (difference from the parental peptide).
In the case of chain 1 F15H, the enrichment was 2.15 log2 (difference from the parental peptide).
On the same count and under the same terms, the result for chain 1 F15W reads -0.244 log2 (difference from the parental peptide); that for chain 1 F15L, 2.03 log2 (difference from the parental peptide); that for chain 1 F15A, 2.04 log2 (difference from the parental peptide).
For chain 1 F15V, the enrichment is 2.71 log2 (difference from the parental peptide).
For the variant chain 1 F15N, the enrichment is -1.79 log2 (difference from the parental peptide).
Same read-out and setting: the result for chain 1 F15C reads -6.07 log2 (difference from the parental peptide).
As for chain 1 T6Q, the enrichment is 1.62 log2 (difference from the parental peptide).
On to chain 1 T6I, for which the enrichment was -5.87 log2 (difference from the parental peptide).
Take chain 1 T6C: the enrichment was -10.4 log2 (difference from the parental peptide).
On the same count and under the same terms, the value for chain 1 T6G was 3.41 log2 (difference from the parental peptide).
On the same count and under the same terms, the value for chain 1 T6F was -4.18 log2 (difference from the parental peptide).
The same measure, in the same setting: the result for chain 1 T6W reads 0.875 log2 (difference from the parental peptide); that for chain 1 T6D, 4.62 log2 (difference from the parental peptide).
Regarding chain 1 T6Y, the enrichment is -1.82 log2 (difference from the parental peptide).
Take chain 1 T6H: the enrichment is -1.17 log2 (difference from the parental peptide).
For chain 1 T6E, the enrichment is 3.09 log2 (difference from the parental peptide).
With chain 1 T6N, the enrichment is 0.938 log2 (difference from the parental peptide).
For chain 1 T6V, the enrichment was -5.45 log2 (difference from the parental peptide).
